Data taken from paper PMC8639797 (Nature, 2021).

Target: T1, trx-ALKAL2-AD^RC (K94E/K96E/K99E/H100E) (human, UniProt Q6UX46 77-152, K94E | K96E | K99E | H100E)
T1 sequence (looked up): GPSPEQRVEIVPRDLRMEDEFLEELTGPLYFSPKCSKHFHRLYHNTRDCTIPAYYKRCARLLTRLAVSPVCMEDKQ
Experiment: BLI

B1: site-specifically biotinylated ALK-ECR^ABR (from Fc-ALKavi) (domain or fragment, human)
chain: QTPIFDPTVHWLFTTCGASGPHGPTQAQCNNAYQNSNLSVEVGSEGPLKGIQIWKVPATDTYSISGYGAAGGKGGKNTMMRSHGVSVLGIFNLEKDDMLYILVGQQGEDACPSTNQLIQKVCIGENNVIEEEIRVNRSVHEWAGGGGGGGGATYVFKMKDGVPVPLIIAAGGGGRAYGAKTDTFHPERLENNSSVLGLNGNSGAAGGGGGWNDNTSLLWAGKSLQEGATGGHSCPQAMKKWGWETRGGFGGGGGGCSSGGGGGGYIGGNAASNNDPEMDGEDGVSFISPLGILYTPALKVMEGHGEVNIKHYLNCSHCEVDECHMDPESHKVICFCDHGTVLAEDGVSCIVSP
modifications: biotin on the C-terminal biotin acceptor peptide (co-expressed BirA)
- binding result: binds
